The values that follow come from patent US20210246451, “APTAMER FOR ADAMTS5 AND USE FOR APTAMER FOR ADAMTS5” (RIBOMIC INC., published 2021).

Sequences and labels used below:
T1: ADAMTS5 (UniProt Q9UNA0 Q9UNA0:262-622)
T1 sequence: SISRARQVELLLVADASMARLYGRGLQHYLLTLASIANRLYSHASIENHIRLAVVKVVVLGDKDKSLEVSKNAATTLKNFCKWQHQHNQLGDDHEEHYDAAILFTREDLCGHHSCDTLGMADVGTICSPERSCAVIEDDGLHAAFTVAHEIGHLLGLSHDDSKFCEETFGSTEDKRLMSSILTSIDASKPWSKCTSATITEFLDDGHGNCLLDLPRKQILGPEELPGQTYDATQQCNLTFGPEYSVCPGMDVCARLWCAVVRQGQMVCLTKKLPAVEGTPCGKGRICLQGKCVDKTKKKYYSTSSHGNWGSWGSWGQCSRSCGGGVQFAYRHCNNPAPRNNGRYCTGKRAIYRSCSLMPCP

B1: SEQ ID NO: 34 (ssRNA)
RNA: GGGUAUUGGGGCCUCCACAGAAAAAACUUGGACUAAACCAACUCGA
modifications: 2'-F pyrimidines
B2: SEQ ID NO: 36 (ssRNA)
RNA: GGGUAUUGGGGCCUCCACAGUUUAAACUUGGACUAAACCAACUCGA
modifications: 2'-F pyrimidines
B3: SEQ ID NO: 35 (ssRNA)
RNA: GGGUAUUGGGGCCUCCACAGUAAGCACUUGGACUAAACCAGCUCGA
modifications: 2'-F pyrimidines
B4: SEQ ID NO: 31 (ssRNA)
RNA: GGGUAUUGGGGCCUCCACAGUUGAAGCUUGGACUAAACCAAUCUCGA
modifications: 2'-F pyrimidines
B5: SEQ ID NO: 33 (ssRNA)
RNA: GGGUAUUGGGGCCUCCACAGCCGAGGCUUGGACUAAACCAAUCUCGA
modifications: 2'-F pyrimidines
B6: SEQ ID NO: 32 (ssRNA)
RNA: GGGUAUUGGGGCCUCCACAGAAAAAUCUUGGACUAAACCAAUCUCGA
modifications: 2'-F pyrimidines
B7: SEQ ID NO: 30 (ssRNA)
RNA: GGGUAUUGGGGCCUCCACAAUAGAUAAAUGGACUAAACCAACUCGA
modifications: 2'-F pyrimidines
B8: 10(1) (ssRNA)
RNA: AUUGGGGCCUCCACAGCUGCUCAGCUUGGACUAAACCAAU
modifications: as SEQ 10 plus 2'-OMe at C8
B9: 10(7) (ssRNA)
RNA: AUUGGGGCCUCCACAGCUGCUCAGCUUGGACUAAACCAAU
modifications: as SEQ 10 plus 2'-OMe at C31
B10: 10(8) (ssRNA)
RNA: AUUGGGGCCUCCACAGCUGCUCAGCUUGGACUAAACCAAU
modifications: as SEQ 10 plus 2'-OMe at U32
B11: 10(2) (ssRNA)
RNA: AUUGGGGCCUCCACAGCUGCUCAGCUUGGACUAAACCAAU
modifications: as SEQ 10 plus 2'-OMe at C9
B12: 10(3) (ssRNA)
RNA: AUUGGGGCCUCCACAGCUGCUCAGCUUGGACUAAACCAAU
modifications: as SEQ 10 plus 2'-OMe at U10
B13: 10(5) (ssRNA)
RNA: AUUGGGGCCUCCACAGCUGCUCAGCUUGGACUAAACCAAU
modifications: as SEQ 10 plus 2'-OMe at C12
B14: 10(4) (ssRNA)
RNA: AUUGGGGCCUCCACAGCUGCUCAGCUUGGACUAAACCAAU
modifications: as SEQ 10 plus 2'-OMe at C11
B15: 10(6) (ssRNA)
RNA: AUUGGGGCCUCCACAGCUGCUCAGCUUGGACUAAACCAAU
modifications: as SEQ 10 plus 2'-OMe at U27
B16: 11(1) (ssRNA)
RNA: AUUGGGGCCUCCACAGCGCUCGCUUGGACUAAACCAAU
modifications: 2'-OMe at 1-5,15-26,32-38; 2'-F other pyrimidines
B17: 11(30) (ssRNA)
RNA: AUUGGGGCCUCCACAGCGCUCGCUUGGACUAAACCAAU
modifications: as 11(1) with PS between 30 and 31
B18: 11(9) (mixed)
RNA: AUUGGGGCCUCCACAGCGCUCGCUUGGACUAAACCAAU
modifications: as 11(1) with dC at 14
B19: 11(20) (ssRNA)
RNA: AUUGGGGCCUCCACAGCGCUCGCUUGGACUAAACCAAU
modifications: as 11(1) with PS between 9 and 10
B20: 11(18) (ssRNA)
RNA: AUUGGGGCCUCCACAGCGCUCGCUUGGACUAAACCAAU
modifications: as 11(1) with PS between 7 and 8
B21: 11(17) (ssRNA)
RNA: AUUGGGGCCUCCACAGCGCUCGCUUGGACUAAACCAAU
modifications: as 11(1) with PS between 6 and 7
B22: 11(7) (mixed)
RNA: AUUGGGGCCUCCACAGCGCUCGCUUGGACUAAACCAAU
modifications: as 11(1) with dC at 11
B23: 11(11) (mixed)
RNA: AUUGGGGCCUCCACAGCGCUCGCUUGGACUAAACCAAU
modifications: as 11(1) with dA at 28
B24: 11(12) (mixed)
RNA: AUUGGGGCCUCCACAGCGCUCGCUUGGACUAAACCAAU
modifications: as 11(1) with dC at 29
B25: 11(5) (mixed)
RNA: AUUGGGGCCUCCACAGCGCUCGCUUGGACUAAACCAAU
modifications: as 11(1) with dC at 9
B26: 11(33) (ssRNA)
RNA: AUUGGGGCCUCCACAGCGCUCGCUUGGACUAAACCAAU
modifications: as 11(1) with 5' 40 kDa branched PEG and 3' idT
B27: SEQ ID NO: 13 (ssRNA)
RNA: GCUGGGGCCUCCACAGCGCUCGCUUGGACUAAACCAGC
modifications: 2'-OMe at 1-5,15-26,32-38; 2'-F other pyrimidines
B28: SEQ ID NO: 14 (ssRNA)
RNA: AUUGGGGCCUCCACAGCUUCGGCUUGGACUAAACCAAU
modifications: 2'-OMe at 1-5,15-26,32-38; 2'-F other pyrimidines
B29: 11(19) (ssRNA)
RNA: AUUGGGGCCUCCACAGCGCUCGCUUGGACUAAACCAAU
modifications: as 11(1) with PS between 8 and 9
B30: 11(10) (mixed)
RNA: AUUGGGGCCUCCACAGCGCUCGCUUGGACUAAACCAAU
modifications: as 11(1) with dG at 27
B31: 11(2) (mixed)
RNA: AUUGGGGCCUCCACAGCGCUCGCUUGGACUAAACCAAU
modifications: as 11(1) with dG at 6
B32: 11(4) (mixed)
RNA: AUUGGGGCCUCCACAGCGCUCGCUUGGACUAAACCAAU
modifications: as 11(1) with dC at 8
B33: 11(25) (ssRNA)
RNA: AUUGGGGCCUCCACAGCGCUCGCUUGGACUAAACCAAU
modifications: as 11(1) with PS between 14 and 15
B34: 11(8) (mixed)
RNA: AUUGGGGCCUCCACAGCGCUCGCUUGGACUAAACCAAU
modifications: as 11(1) with dC at 12
B35: 11(21) (ssRNA)
RNA: AUUGGGGCCUCCACAGCGCUCGCUUGGACUAAACCAAU
modifications: as 11(1) with PS between 10 and 11
B36: 11(3) (mixed)
RNA: AUUGGGGCCUCCACAGCGCUCGCUUGGACUAAACCAAU
modifications: as 11(1) with dG at 7
B37: 11(14) (mixed)
RNA: AUUGGGGCCUCCACAGCGCUCGCUUGGACUAAACCAAU
modifications: as 11(1) with dA at 31
B38: 11(6) (mixed)
RNA: AUUGGGGCCUCCACAGCGCUCGCUUGGACUAAACCAAU
modifications: as 11(1) with dT at 10
B39: 11(15) (mixed)
RNA: AUUGGGGCCUCCACAGCGCUCGCUUGGACUAAACCAAU
modifications: as 11(1) with dA at 13
B40: 11(13) (mixed)
RNA: AUUGGGGCCUCCACAGCGCUCGCUUGGACUAAACCAAU
modifications: as 11(1) with dT at 30
B41: 11(16) (ssRNA)
RNA: AUUGGGGCCUCCACAGCGCUCGCUUGGACUAAACCAAU
modifications: as 11(1) with PS between 5 and 6
B42: 11(32) (ssRNA)
RNA: AUUGGGGCCUCCACAGCGCUCGCUUGGACUAAACCAAU
modifications: as 11(1) with PS between 8-9, 9-10, 10-11, 14-15; 3' idT

The first data set has as its target T1, ADAMTS5. Kind of data set: SPR; RU ratio >=40%. To be noted: tags: R&D Systems.
In the case of B1, the binding result is recorded as “binds”.
For B2, the binding result is on record as “binds”.
Turning to B3, the binding result is “binds”.
For B4, the binding result is “binds”.
As for B5, the binding result is given as “binds”.
As to B6, the binding result was “binds”.
Still for that read-out and setting: the entry for B7 is “binds”.

Another data set has as its target T1, ADAMTS5. The experiment in a line: inhibition; 10 nM. Particulars: tags: R&D Systems. The protocol: Whether an aptamer having the nucleotide sequence shown in SEQ ID NO: 1 inhibits the enzyme activity of ADAMTS5 was evaluated by the following method. As a substrate of ADAMTS5, the G1-IGD-G2 domain of aggrecan (manufactured by R&D systems) was used. ADAMTS5 specifically cleaves in between the 392nd glutamic acid and the 393rd alanine in the G1-IGD-G2 domain and produces two fragments. These fragments have faster electrophoretic mobility than uncleaved G1-IGD-G2. Thus, the enzyme activity of ADAMTS5 can be measured by quantifying the band intensity of G1-IGD-G2 by SDS-PAGE electrophoresis. The assay was performed in a solution A buffer with a reaction mixture volume of 10 μL. First, a mixture (10 μL) of a nucleic acid and ADAMTS5 was prepared and incubated at 25° C. for 15 min. To a substrate solution (5 μL) diluted with solution A was added a mixture (5 μL) of the nucleic acid and ADAMTS5 to start the enzyme reaction. The final concentration of ADAMTS5 in the reaction solution was 5 nM, and the final substrate concentration was 50 μg/mL. The reaction solution was incubated at 37° C. for 2 hr, 2 μL of solution D was added, and the mixture was heated at 95° C. for 2 min to stop the enzyme reaction of ADAMTS5. Solution D contains 0.25 M tris (pH 6.8), 10% SDS, 50% glycerol, 0.25% bromo phenolblue, and 20% 2-mercaptoethanol. The heat-treated reaction solution was electrophoresed by 7.5% SDS-PAGE and stained with SYPRO Orange (manufactured by Sigma-Aldrich). The staining was performed according to the manual of Sigma-Aldrich and detected using STORM840 manufactured by GE Healthcare. […] The amount of uncleaved substrate in each reaction solution was quantified from the band intensity and the standard curve. The substrate cleavage efficiency of ADAMTS5 under these reaction conditions was 80-100%. The inhibition rate of the test substance was calculated using the following equation.
The aptamers having the sequences shown in SEQ ID NOs: 10(1)-10(8) and 11(1)-11(35), SEQ ID NO: 13-15 were all produced by chemical synthesis.
B8 registered an activity of 41.3 % inhibition.
The molecule B9 showed an activity of 10.4 % inhibition.
In turn, B10 registered an activity of 12.8 % inhibition.
Turning to B11, the activity worked out at 12.6 % inhibition.
Same read-out and setting: the figure for B12 is 2 % inhibition; for B13 it is 8.5 % inhibition; for B14 it is 3.6 % inhibition.
B15: the activity was 61.8 % inhibition.
In turn, B16 showed an activity of 62.8 % inhibition.
B17: the activity was 38.3 % inhibition.
Molecule B18 registered an activity of 60.8 % inhibition.
Molecule B19 had an activity of 74.7 % inhibition.
In turn, B20 showed an activity of 60.3 % inhibition.
Molecule B21 registered an activity of 70 % inhibition.
The molecule B22 displayed an activity of 23 % inhibition.
The molecule B23 registered an activity of 32 % inhibition.
In turn, B24 displayed an activity of 62.5 % inhibition.
Molecule B25 showed an activity of 34.2 % inhibition.
Take B26: the activity worked out at 55.5 % inhibition.
Molecule B27 showed an activity of 58.4 % inhibition.
In turn, B28 showed an activity of 60.5 % inhibition.
In the case of B29, the activity amounted to 81.1 % inhibition.
The molecule B30 gave an activity of 59.1 % inhibition.
Molecule B31 yielded an activity of 60.6 % inhibition.
In turn, B32 returned an activity of 50.9 % inhibition.
B33 returned an activity of 76.4 % inhibition.
Molecule B34 yielded an activity of 43.2 % inhibition.
B35 returned an activity of 80.3 % inhibition.
B36 registered an activity of 19.5 % inhibition.
Molecule B37 returned an activity of 45.1 % inhibition.
In the case of B38, the activity came out at 9.2 % inhibition.
B39: the activity stood at 50.4 % inhibition.
Turning to B40, the activity was determined as 20.3 % inhibition.
As to B41, the activity turned out to be 50.9 % inhibition.
As for B42, the activity turned out to be 58.8 % inhibition.
